Measured values: the nanobody polyreactivity screen of Harvey et al. (2022)

Test: yeast display, Sf9 membrane polyspecificity reagent, FACS + sequencing; frameworks hold sequencing errors
How it was run: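 A synthetic nanobody library was expressed on Saccharomyces cerevisiae BJ5465 by galactose induction for 36–48 hours. The library was stained for 1 hour at 4 °C with 10% biotinylated, detergent-solubilized Sf9 membrane reagent and enriched with streptavidin microbeads before FACS. Low and high (top ~1%) gates were set on anti-HA fluorescence for expression and streptavidin fluorescence for reagent binding, and each polyreactivity label reflects the gate of origin.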

Row | Sequence | polyreactivity (PSR sort gate)
1 | QVQLVESGGGLVQAGGSLRLSSAASGRTFHRNAMGWYRQAPGKERELVAAITGDGRTNYADSVKGRFTISRDNAKNTVYLQMNSLKPEDTAVYYCAARFSYRSYDYWGQGTQVTVSS | low polyreactivity
2 | QVQLVESGGGLVQAGGSLRLSSAASGRTFKYYGLGWYRQPPGKESQLVATISRSSSRTYYADSVKGRFTISRDNAKNTVYFKMNSLKPEDSAVYYCASLAPRSYDYDYWGKGTQVTVSS | high polyreactivity
3 | QVQLVESGGGLVQAGGSLRLSSAASGRTFQDNAMGSYRQAPGKERELVAAISWRGGSTNYADSVKGRFTISRDNAKNTVYLQMNSLIPEDTAVYYCNRDPRKYGKLDYWGQGTQVTVSS | low polyreactivity
4 | QVQLVESGGGLVQAGGSLRLSSAASGRTFRYYAMRWYRQAPAKERELVAAINRGGSTYYGDSVKGRFTISRDNAKNTVYLQMNSLKPVDTAVYYCNVDKYRIVGFHTPYDYWGQGTQVTVSS | high polyreactivity
5 | QVQLVESGGGLVQAGGSLRLSSAASGRTFYANAMGWYRQAPRKERELVAAISSGGITNYADSVKGRFTISRDNAKNTVYLQMNSLKPEDTAVYYCPYDYWGQGTQVTVSS | low polyreactivity
6 | QVQLVESGGGLVQAGGSLRLSSAASGRTFYLYAMGWYRQAPGKAMELVAAISRSGGITYYADSVKGRFTISRDNAKNTVYLQMNSLKPEDTGVYYCAASRAGGYYGKGYSWGQGSQVTVSS | high polyreactivity
7 | QVQLVESGGGLVQAGGSLRLSSAASGRTFYVNAMGWYRQAPGKERELVAAITRSSGSTHYADSVKGRFTISRDNAKNTVYLQMNSLKPEDTAVYYCAADSTYRKYYYWGQGTQVTVSS | high polyreactivity
8 | QVQLVESGGGLVQAGGSLRLSSAASGSIFDSNALGWYRQARGKERELVAAISLSGGSTYYADSVKGRFTISRDNAKNTVYLQMKSLKPEDTAVYYCAKDGWYEYYWGQGTQVTVSS | low polyreactivity
9 | QVQLVESGGGLVQAGGSLRLSSAASGSIFGSNAMGWSRQAPGKERELVATITTSGGITYYADSVKGRFTISRDNAKNTVYLQMTSLKPEDTAVYYCAAAEGGGLVTYDYWGQGTQVTVSS | low polyreactivity
10 | QVQLVESGGGLVQAGGSLRLSSAASGSIFGYAMGCDRHAPGKERELVASTTYADSVKGRFTISRDNAKNTVYLQMNSLKPEDTAVYYCAAEDRPLYWRFPDEMDYWGQGTQVTVSS | low polyreactivity
11 | QVQLVESGGGLVQAGGSLRLSSAASGSIFGYNAIGWYRQAPGKERELVAAISYSGGRTYYADSVKGRFTISRDNAKNTVYLQMNCLKAEDTAVYYCAKVLQYRTFYTGYDYWGQGTQVTVSS | high polyreactivity
12 | QVQLVESGGGLVQAGGSLRLSSAASGSIFIGYAMGWYRQAPGKARELVAAINDSGDRTYYADSVKGRFTISRDNAKNTVFLQMNSLKREDTAVYYCAADLGSLDPEYDYWGQGTQVTVSS | low polyreactivity
13 | QVQLVESGGGLVQAGGSLRLSSAASGSIFITYAMGWYRQAPGKERELVAAIRDSGDRTYYADSVKGRFTISRDNAKNTVYLQMNSLKPEDTAVYYCNARWQEPLKYDYWGQGTQVTVSS | low polyreactivity
14 | QVQLVESGGGLVQAGGSLRLSSAASGSIFPSYAMGWYIQAPGKETELVAAITTSGGNTFYADSVKGRFTISRDNAKNTVYLQMNSLKPEDTAVYYCAADYSPYTVEYDYWGQGTQVTVSS | low polyreactivity
15 | QVQLVESGGGLVQAGGSLRLSSAASGSIFRGYAMGWYRQAPEKERELVAAISRRGGSTYYADSVKGRFTISRDNAKNTVYLQMNSLKPEDTAVYYCAKDGTGAGTYDYWGLGTQVTVSS | low polyreactivity
16 | QVQLVESGGGLVQAGGSLRLSSAASGSIFSRYAMGWYRQAPGIERELVAAITWSGGSTYYADSVKGRFTISRDNAKNTVYLQMNSLKPEDTAVYYCAAFGYAPYNHRYDYWGQGTQVTVSS | low polyreactivity
17 | QVQLVESGGGLVQAGGSLRLSSAASGSIFVHYAMGWYRQAPGKEREFVAAISRGGGTTYYADSVKGRFTISRDNAKNTVYLQLNCLKPEDNAVYYCNAVRFFEHDYWGQGTQVTVSS | high polyreactivity
18 | QVQLVESGGGLVQAGGSLRLSSAASGSILWQYAMGWYRQAPGKERELVAAITYSGGSTHYADSVKGRFTISRDNAKNTVYLQMNSLKPEDTAVYYCAAGYWSRYAALRYDHWGQGTQVTVSS | low polyreactivity
19 | QVQLVESGGGLVQAGGSLRLSSAASGSILYYNAMGWYRQAPGKERELVAAITSYGGDTYYADSVKGRFTISRDNAKNTVYLQMNSLKPEDSAVYYCAASSHFRPWAYYDDDYDHWGQGTQVTVSS | low polyreactivity
20 | QVQLVESGGGLVQAGGSLRLSSAASGSIQFRNAMRWYRHAPGKERELVAAITVSGGSTYYADSVKGRFTISRDYAKNRVYLQMNSLKPEDNAVYLCAAVYLLRYSQFDYWGQGTQVTESS | low polyreactivity
21 | QVQLVESGGGLVQAGGSLRLSSAASGSISDSYAMGWYRQAPGKERELVAAITSGDSTYYADSVKGRFTISRDNAKNTVYLQMNSLKPEDTAVYFCAKRVSRVRGYVFTDWSEYDYWGQGTQVTVSS | low polyreactivity
22 | QVQLVESGGGLVQAGGSLRLSSAASGSISPQNVMGWYRQEPGKERELVAAITGGGSTNYADSVKGRFTISRDNAKNTVSLQMNSLKPEDTAVYYCNDDYFQDRLDYWGQGTQVTVSS | low polyreactivity

Row | Sequence | polyreactivity (PSR sort gate)
23 | QVQLVESGGGLVQAGGSLRLSSAASGSRNAMGWSRQAPGKEREFVAAITWNGGSTYYADSVKGRFTISRDNAKNTVYLQMNSLKPEDTAVYYCNKREVFIYGTTYDYWGQGTQVTVSS | low polyreactivity
24 | QVQLVESGGGLVQAGGSLRLSSAASGSTFGAYAMGWYRQAPGKERELVAVINSDGSTNYADSVKGRFTISRDNAKNTVYLQMNSLKPEDTAVYFCAKERTSRGGVPRMNYWGQGTQVTVSS | low polyreactivity
25 | QVQLVESGGGLVQAGGSLRLSSAASGSTFRGNAMGWYRQAPGKERELVAAISAIGGSTYYADSVKGRFTISRDNAKNTVYLQMNSLKPEDTAVYYCAARYLYLLGGFNYWGQGTQVTVSS | high polyreactivity
26 | QVQLVESGGGLVQAGGSLRLSSAASGSTFRWYAMGWSRQEPGKEREFVAAITWSGGRTYYADSVKGRFTISRDNAKNTVFLQLNSLKPEDTAVYYCNAYDYGYSFNYWGQGTQVTLSS | high polyreactivity
27 | QVQLVESGGGLVQAGGSLRLSSAASGSTFRYYVMGRYRQAAGKERELVAGISSRGGTTYYADSVKGRFTISRDNAKNTVYLQMNSLKPEDSAVYYCNADTAAAQASYDRLYVLLDYWGQGTQVTVSS | low polyreactivity
28 | QVQLVESGGGLVQAGGSLRLSSAASGSTFTLYAMGWYRQAPGKERELVATITGSGGSTNYADSVKGRFTISRDNAKNTVYLQMNSLKPEDTAVYYCAADYAVYSFTEFNYWGQGTQVTVSS | high polyreactivity
29 | QVQLVESGGGLVQAGGSLRLSSAASGSTFVQNAMGWYRQAPGKERELVAAISRGGTSTYYADSVKGRFTISRDNAKNTVYLQMNSLKPEDTAVYYCAAYTSYLGYPYDYWGQGTQVTVSS | high polyreactivity
30 | QVQLVESGGGLVQAGGSLRLSSAASGSTFWYYAMGWYRQAPGTERELVAGITQSGGSTYYADSVKGRFTISRDNAKNTVYLQMNSLKPEDTAVYYCAKDGRVSGDFDYWGQGTQVTVSS | low polyreactivity
31 | QVQLVESGGGLVQAGGSLRLSSAASGSTIRVYAMGWYRQAPGKERELVATISWGGGRTYYADSVKGRFTISLDNAKNTVYLQMNSLKQEDTSVYYCAADQRWTTDQPTAGDYWGQGTQVTVSS | low polyreactivity
32 | QVQLVESGGGLVQAGGSLRLSSAASGSTYFTYAMGWYRQAPGKERELVAAISWSGGTTYYADSVKGRFTISRDNAKNTVYLQMNSLKPEDTAVYYCASARDGILKANDYWGQGTQVTVSS | low polyreactivity
33 | QVQLVESGGGLVQAGGSLRLSSAASGYTFSRNAMGWYRQAPGKERELVASISSRGGSTRYADSVKGRFTISRDNAKYTVYLQMNSLKPEDTAVYYCAVRGLYSPFTYGYWGQGTQVTVSS | high polyreactivity
34 | QVQLVESGGGLVQAGGSLRLSSAASTYLRLLMLWDGIDRRLGQIGSWLPLLTLVVNSTYYADSVKGRFTISRDNAKNTVYFQMNSLKPEDTAVYYCNVDPYGTYARTHLEYWGQGTQVTVSS | low polyreactivity
35 | QVQLVESGGGLVQAGGSLRLSSADSGRIFNRYAMGSYRQAPGKERELVAAITGSGGRTYYADSVKGRFTISRDNAKNTVYLQMNSLKPEDTAVYYCAATSLIYGYRTYDYWGQGTQVTVSS | high polyreactivity
36 | QVQLVESGGGLVQAGGSLRLSSADSGRIFSYYAMGGYRQAPGKEREFVATITYGGGSTYYADSVKGRFTISRDNAKNTVYLQMNSLKPEDTAVYYCAARGYSYRGWRMDYWGQGSQVTVSS | high polyreactivity
37 | QVQLVESGGGLVQAGGSLRLSSAGSGSTLAYNAMGWYRQAPGKERELVAAISRGTSTYYADSVKGRFTISRDNAKNTVYLQMNSLKPEDTEVYYCAADYVIQYREYDSWGQGTQVTVSS | low polyreactivity
38 | QVQLVESGGGLVQAGGSLRLSSAPSGRTFLSNAMGWYRQAPGKERELVAAITWETDSTYYADSVKGLFTISRDNAKNTVYLQMNSLKPEDTAVYYCAARRYRPFTDYDGRTWWTRDYWGQGTQVTVSS | low polyreactivity
39 | QVQLVESGGGLVQAGGSLRLSSAPSGSIFWGYAMGWYRQAPGKERELVATIRNRGGSTYYADSVKGRFTISRDNAKNTVYFQMNSRKPDDTAVYYCAAVSYRQYYGWGNYWGQGSQVTVSS | low polyreactivity
40 | QVQLVESGGGLVQAGGSLRLSSASSGFTFNSYAMGWYRQAPGKERELVAAIDTGDDITYYADSVKGRFTISRDNAKNTVYLQMNSLKPVDTAVYYCAAKSRRQYTVGLSSDYWGQGTQVTVSS | high polyreactivity
41 | QVQLVESGGGLVQAGGSLRLSSASSGRTLVPYAMGWYRQAPGKERELVAAISSGGYTNYADSVKGRFTISRDNAKNTVYLQMNSLKPEDTAVYYCAADYPVRSYDYWGQGTQVTVSS | low polyreactivity
42 | QVQLVESGGGLVQAGGSLRLSSASSRSTFLLNAMGWYRQEPGKERELVAAITWTGGSTYYADSVKGLFTISRDNANNNVYLQMNSLNQEDTAVYYCAAETYVTSYYYWGQGTQVTVSS | low polyreactivity
43 | QVQLVESGGGLVQAGGSLRLSSDASGNTFVYNAMGWYRQAPGKERKLVAGITKTGGRTYYADSVKGRFTISRDNAKNTVYLQMNSLKPDDTAVYYCAARPWNDGYYVGRFHMDYWGQGTQVTLSS | low polyreactivity
